Literature values, collected in publication PMC7054563.

Molecular target: Glu150 (UniProt position 150, LMANVELIAPL)

## Multidrug transporter MdfA, triple mutant E26T/D34M/A150E (Escherichia coli; E26T;D34M;A150E)
  pKa: 6.5
